The values below come from the RNAGym collection of RNA variant scans (doi:10.7554/elife.80360).

B1: HDV Ribozyme (parent)
chain: GGCCGGCAUGGUCCCAGCCUCCUCGCUGGCGCCGGCUGGGCAACAUUCCGAGGGGACCGUCCCCUCGGUAAUGGCGAAUGGGACCCA

The variants in this data set derive from B1. Briefly: self-cleavage, relative activity (ratio to wild type); higher = more cleavage; co-transcriptional.
As for G6U C66U, the self-cleavage stood at 0.645.
For the variant G6U, the self-cleavage was 0.63.
With G6C, the self-cleavage was 0.294.
Consider G6A, for which the self-cleavage is 0.726.
Turning to G6C C22A, the self-cleavage was found to be 0.
Next, G5U U27G: 0.665.
In the case of G5U U27A, the self-cleavage was 0.443.
Next, G6C A83G: 0.189; C7A C84G: 0.128; G6C C18U: 0.0923.
For G6C C18A, the self-cleavage stood at 0.0791.
For C7A G28C the value was 0.0615; for C7A U46A, 0.287.
Take C7A U46G: the self-cleavage came to 0.0755.
On to G6C U72A, for which the self-cleavage came out at 0.0755.
For the variant G6C U72C, the self-cleavage came out at 0.0831.
For C7A C49G the value was 0.291.
With G6C C30A, the self-cleavage worked out at 0.0415.
As to C7G C19G, the self-cleavage was determined as 0.0791.
As to G6U G25C, the self-cleavage amounted to 0.0426.
G6U A71U: the self-cleavage was 0.415.
Take G6C G40A: the self-cleavage worked out at 0.259.
For G6U A8U the value was 0.403; for G6U A8G, 0.346; for G6A A51U, 0.778.
Next, C7A C19A: 0.0277; C7A C19G: 0.145; C7A C63U: 0.652.
For C7G A87U the value was 0.284; for G6U U9G, 0.511; for G5U U20C, 0.
G6C G73U: the self-cleavage amounted to 0.0923.
As to G6C C32A, the self-cleavage turned out to be 0.482.
With C7A G68U, the self-cleavage was determined as 0.623.
Next, G6A G35A: 0.302.
For the variant G6A G39A, the self-cleavage stood at 0.277.
For G5U G34U the value was 0.0426.
Take G6U G40C: the self-cleavage is 0.193.
On to G6U G40A, for which the self-cleavage is 0.587.
For G6U C44U the value was 0.162; for G5U G82A, 0.185; for G5U G82U, 0.128.
Consider G6A C64A, for which the self-cleavage worked out at 0.869.
In the case of G6A C64G, the self-cleavage was determined as 0.604.
For G6C C75U, the self-cleavage was 0.095.
With C7A G50U, the self-cleavage worked out at 0.475.
On to G5U G80U, for which the self-cleavage came to 0.0405.
On to G5U U65A, for which the self-cleavage worked out at 0.453.
For C7A G52U the value was 0.462; for G6A G53A, 0.874; for G6A G53U, 0.786.
For G6A G73C the value was 0.312; for G6A G73U, 0.111; for G5U U46A, 0.119.
G6U A42G: the self-cleavage was 0.214.
For the variant G6U A42C, the self-cleavage worked out at 0.
For C7A C26G the value was 0.554.
Regarding C7A C26U, the self-cleavage stood at 0.919.
Next, G6A G76A: 0.744; C7A C61G: 0.806; C7A C61A: 0.692.
For C7A G40U the value was 0.295.
Take C7A G40A: the self-cleavage was determined as 0.646.
For G6U G29U the value was 0.104.
For G6U G82U the value was 0; for G6C G50C, 0.554.
With C7A G53A, the self-cleavage worked out at 0.642.
Next, C7A G53U: 0.544.
For G6A C33U the value was 0.172.
G6A C33A: the self-cleavage is 0.0678.
Turning to C7A C62U, the self-cleavage stood at 0.721.
In the case of G5U U47C, the self-cleavage amounted to 0.185.
For the variant G5U G54A, the self-cleavage was 0.314.
Next, G6U A87C: 0.592; G6U A87G: 0.377.
For the variant G6A U20G, the self-cleavage stood at 0.262.
For C7G C22U the value was 0.0898.
Regarding C7G C22G, the self-cleavage was found to be 0.0791.
For the variant G6U A56U, the self-cleavage was 0.703.
For G6U A70G the value was 0.571; for G6A U37C, 0.853; for C7A A43C, 0.0923.
Take C7A U37C: the self-cleavage turned out to be 0.719.
Next, C7A U37A: 0.229; G6U C26G: 0.364.
For G6C G68U, the self-cleavage was found to be 0.277.
Next, G6C G34A: 0.0536; G6U C62G: 0.332.
Next, G6U C62A: 0.54; G6A C86U: 0.759.
As for G6A C86G, the self-cleavage amounted to 0.802.
With G6C U79A, the self-cleavage amounted to 0.119.
Next, G6A A8G: 0.554; C7G A45U: 0.383.
Next, G5U G55C: 0.465; C7A C15U: 0.283.
Next, G6A C84U: 0.628; G6A C84G: 0.122; G6C G25U: 0.166.
As to G5U G50C, the self-cleavage was found to be 0.192.
For C7A C58A the value was 0.772; for G6U G80C, 0.0898; for C7G A77G, 0.0755.
For C7G A77U the value was 0.0875; for G6A U47A, 0.35.
In the case of G6U G17A, the self-cleavage amounted to 0.19.
Next, G6U G17C: 0.0554; G6C A51C: 0.225; G6U C22A: 0.0489.
Next, G6U G10U: 0.0791; G6C A70G: 0.175; G5U G39A: 0.217.
As for C7A A83U, the self-cleavage came out at 0.0426.
As for C7A A83G, the self-cleavage was found to be 0.141.
For G6U U27C the value was 0.237.
Regarding G6U U27G, the self-cleavage was 0.172.
Next, G6U A78C: 0.252; G5U U79G: 0; C7A C18U: 0.229.
Next, G6C C19G: 0.192; G6C C19A: 0.
Next, G6C G55C: 0.308; G6C G55U: 0.177.
On to G5U G59A, for which the self-cleavage amounted to 0.529.
In the case of G6A C85A, the self-cleavage was determined as 0.895.
For G6U C13U the value was 0.249.
For G6U G34C the value was 0.0405; for G6A G80C, 0.0941.
For G6U G67C, the self-cleavage was 0.73.
For C7A C36G the value was 0.0875.
As to G6C C49U, the self-cleavage was found to be 0.489.
As to G6A A70G, the self-cleavage came to 0.629.
On to C7A C13G, for which the self-cleavage stood at 0.
Turning to C7A C13U, the self-cleavage turned out to be 0.0361.
For G6C G53U the value was 0.138.
Turning to C7A G81C, the self-cleavage was 0.0536.
Next, C7A C66A: 0.539.
For G6A A78G the value was 0.554; for G6A A78C, 0.0615.
Next, G6C A87C: 0.312.
Regarding G6C A87U, the self-cleavage was found to be 0.282.
For G6A U60A, the self-cleavage worked out at 0.811.
Next, G6A U60C: 0.789.
Consider G6A U60G, for which the self-cleavage worked out at 0.365.
Next, C7A G59U: 0.646; C7A G59A: 0.753.
For G6A G59A the value was 0.776; for G6A U23A, 0.569.
As to G5U U12C, the self-cleavage was determined as 0.0831.
Next, G5U U12A: 0.332; G6C G82A: 0.
As for G6C G82C, the self-cleavage is 0.0405.
As for G6U G52A, the self-cleavage is 0.739.
As for G6C G80U, the self-cleavage amounted to 0.0692.
Next, C7A G39U: 0.18.
As for C7A G39A, the self-cleavage was determined as 0.0739.
Next, C7A G38C: 0.106; C7A G10C: 0.201; C7A G10U: 0.0723.
As to C7A U23G, the self-cleavage was found to be 0.19.
For C7G C18U the value was 0.0639; for G6A G81C, 0.0378.
For G6A G81U the value was 0.0773; for G6A G81A, 0.282; for G6A G29U, 0.0563.
Next, G5U U60C: 0.604.
Turning to G5U U60A, the self-cleavage was 0.447.
